Each substance was assayed against HLA-A*01:01 (Homo sapiens, UniProt P04439, A114D/A174V/A182V/D101N/D185E/E176A/E190D/L180R/Q94H/R68K/S129P/T187R/V100A/V91M/W191G) (assay: MHC binding assay (UV-ligand exchange, beta2m ELISA)). Details: peptide exchange yield.
Method in brief: (§1)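 Peptide–MHC complexes formed by UV-induced exchange of a UV-cleavable peptide for the test peptide. Exchange yield measured by streptavidin-capture ELISA detecting β2m (HRP anti-β2m, TMB, A450) on 100-fold diluted samples. Quantified against refolded HLA-A*02:01/MLA-001 standards (15-500 ng/ml).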
With “289 (RWEKTDLTY; listed as Homo sapiens) [compound 289]” the Peptide exchange was “++ (>20% = ++)”.
In the case of “114 (VMEQSAGIMY; listed as Homo sapiens) [compound 114]”, the Peptide exchange is reported as “++ (>20% = ++)”.
“292 (NVTMKVVSVLY; listed as Homo sapiens) [compound 292]” was tested, and the Peptide exchange was “+++ (>50 = +++)”.
In the case of “31 (LLDEGAMLLY; listed as Homo sapiens) [compound 31]”, the Peptide exchange is reported as “++++ (>75% = ++++)”.
With “290 (DMDEEIEAEY; listed as Homo sapiens) [compound 290]” the Peptide exchange was “++ (>20% = ++)”.
For “288 (SPVTSVHGGTY; listed as Homo sapiens) [compound 288]”, the Peptide exchange was “++ (>20% = ++)”.

These substances were tested against HLA-A*03:01 (Homo sapiens, UniProt P04439) in the same assay as above. Details: peptide exchange yield.
Method in brief: as §1
With “262 (RSRLNPLVQR; listed as Homo sapiens) [compound 262]” the Peptide exchange was “++ (>20% = ++)”.
For “265 (QIHDHVNPK; listed as Homo sapiens) [compound 265]”, the Peptide exchange was “++ (>20% = ++)”.
For “284 (KSLIKSWKK; listed as Homo sapiens) [compound 284]”, the Peptide exchange was “++ (>20% = ++)”.
In the case of “257 (VTADHSHVF; listed as Homo sapiens) [compound 257]”, the Peptide exchange is reported as “+ (>10% = +)”.
“260 (GTNTVILEY; listed as Homo sapiens) [compound 260]” was tested, and the Peptide exchange was “+++ (>50 = +++)”.

The substances below were run against HLA-A*02:01 (Homo sapiens, UniProt P04439, D140Y/D185E/D98H/E176V/E277Q/G131W/G231S/I119V/I121R/I166T/I218V/L300P/L318F/N151K/N90K/P208A/P217A/Q86G/Q94H/R138H/R169H/T345S) in the same assay as above. Details: peptide exchange yield.
Method in brief: as §1
In the case of “6 (SLGKHTVAL; listed as Homo sapiens) [compound 6]”, the Peptide exchange is reported as “+++ (>50 = +++)”.
For “236 (SAIPFSMTL; listed as Homo sapiens) [compound 236]”, the Peptide exchange was “+++ (>50 = +++)”.
For “243 (YASEGVKQV; listed as Homo sapiens) [compound 243]”, the Peptide exchange was “+++ (>50 = +++)”.
In the case of “68 (KLFDTQQFL; listed as Homo sapiens) [compound 68]”, the Peptide exchange is reported as “++++ (>75% = ++++)”.
“64 (FLDPDRHFL; listed as Homo sapiens) [compound 64]” was tested, and the Peptide exchange was “++++ (>75% = ++++)”.
“61 (YMVHIQVTL; listed as Homo sapiens) [compound 61]” was tested, and the Peptide exchange was “++++ (>75% = ++++)”.
“219 (PLPRPGAVL; listed as Homo sapiens) [compound 219]” was tested, and the Peptide exchange was “+ (>10% = +)”.
With “229 (ISVPAKTSL; listed as Homo sapiens) [compound 229]” the Peptide exchange was “+ (>10% = +)”.
“62 (KVLGVNVML; listed as Homo sapiens) [compound 62]” was tested, and the Peptide exchange was “++++ (>75% = ++++)”.
“222 (ALMRLIGCPL; listed as Homo sapiens) [compound 222]” was tested, and the Peptide exchange was “++++ (>75% = ++++)”.
“71 (YLEDTDRNL; listed as Homo sapiens) [compound 71]” was tested, and the Peptide exchange was “++++ (>75% = ++++)”.
For “217 (VSSSLTLKV; listed as Homo sapiens) [compound 217]”, the Peptide exchange was “+ (>10% = +)”.
In the case of “221 (SLLDLYQL; listed as Homo sapiens) [compound 221]”, the Peptide exchange is reported as “++ (>20% = ++)”.
For “244 (DTDSSVHVQV; listed as Homo sapiens) [compound 244]”, the Peptide exchange was “+ (>10% = +)”.
“220 (RMTTQLLLL; listed as Homo sapiens) [compound 220]” was tested, and the Peptide exchange was “+++ (>50 = +++)”.
With “216 (IMFDDAIERA; listed as Homo sapiens) [compound 216]” the Peptide exchange was “++++ (>75% = ++++)”.
For “73 (FLIEELLFA; listed as Homo sapiens) [compound 73]”, the Peptide exchange was “++++ (>75% = ++++)”.
In the case of “1 (MIPTFTALL; listed as Homo sapiens) [compound 1]”, the Peptide exchange is reported as “+++ (>50 = +++)”.
For “7 (ALQAFEFRV; listed as Homo sapiens) [compound 7]”, the Peptide exchange was “++++ (>75% = ++++)”.
For “9 (VLLAGFKPPL; listed as Homo sapiens) [compound 9]”, the Peptide exchange was “+ (>10% = +)”.
With “224 (SLPRFQVTL; listed as Homo sapiens) [compound 224]” the Peptide exchange was “++++ (>75% = ++++)”.
In the case of “60 (GLLSLTSTLYL; listed as Homo sapiens) [compound 60]”, the Peptide exchange is reported as “++++ (>75% = ++++)”.
For “3 (ALIYNLVGI; listed as Homo sapiens) [compound 3]”, the Peptide exchange was “++++ (>75% = ++++)”.
For “242 (STIPALHEI; listed as Homo sapiens) [compound 242]”, the Peptide exchange was “+++ (>50 = +++)”.
With “2 (TLLKALLEI; listed as Homo sapiens) [compound 2]” the Peptide exchange was “++++ (>75% = ++++)”.
For “75 (KVVSVLYNV; listed as Homo sapiens) [compound 75]”, the Peptide exchange was “++++ (>75% = ++++)”.
With “63 (MMEEMIFNL; listed as Homo sapiens) [compound 63]” the Peptide exchange was “++++ (>75% = ++++)”.
In the case of “234 (GVATRVDAI; listed as Homo sapiens) [compound 234]”, the Peptide exchange is reported as “++ (>20% = ++)”.
For “8 (YLVTKVVAV; listed as Homo sapiens) [compound 8]”, the Peptide exchange was “++++ (>75% = ++++)”.
“4 (ALFKAWAL; listed as Homo sapiens) [compound 4]” was tested, and the Peptide exchange was “++++ (>75% = ++++)”.
In the case of “228 (RLWDWVPLA; listed as Homo sapiens) [compound 228]”, the Peptide exchange is reported as “++++ (>75% = ++++)”.
In the case of “232 (TISSLTHEL; listed as Homo sapiens) [compound 232]”, the Peptide exchange is reported as “++++ (>75% = ++++)”.
In the case of “223 (FAHHGRSL; listed as Homo sapiens) [compound 223]”, the Peptide exchange is reported as “+ (>10% = +)”.
In the case of “69 (TTYEGSITV; listed as Homo sapiens) [compound 69]”, the Peptide exchange is reported as “++++ (>75% = ++++)”.
In the case of “241 (RQPNILVHL; listed as Homo sapiens) [compound 241]”, the Peptide exchange is reported as “++ (>20% = ++)”.
“231 (SVTESTHHL; listed as Homo sapiens) [compound 231]” was tested, and the Peptide exchange was “+++ (>50 = +++)”.
“5 (RLLDFINVL; listed as Homo sapiens) [compound 5]” was tested, and the Peptide exchange was “++++ (>75% = ++++)”.
For “66 (GLLQELSSI; listed as Homo sapiens) [compound 66]”, the Peptide exchange was “++++ (>75% = ++++)”.
With “70 (VLQGLLRSL; listed as Homo sapiens) [compound 70]” the Peptide exchange was “++++ (>75% = ++++)”.
With “227 (YTFRYPLSL; listed as Homo sapiens) [compound 227]” the Peptide exchange was “+++ (>50 = +++)”.
“72 (YLTDLQVSL; listed as Homo sapiens) [compound 72]” was tested, and the Peptide exchange was “++++ (>75% = ++++)”.
For “225 (SVFAHPRKL; listed as Homo sapiens) [compound 225]”, the Peptide exchange was “+++ (>50 = +++)”.
For “67 (SLLLPSIFL; listed as Homo sapiens) [compound 67]”, the Peptide exchange was “++++ (>75% = ++++)”.

The substances below were run against HLA-A*24:02 (Homo sapiens, UniProt P04439, D101N/D140Y/D185E/E176V/E190D/F33S/G103R/G107R/I119L/I121M/I306V/K335N/L105A/L180Q/L300P/N151K/N90K/Q86E/Q94H/R106L/R138H/R89G/T104I/T345S/V100E/W191G/Y123F) in the same assay as above. Details: peptide exchange yield.
Method in brief: as §1
In the case of “19 (KYVKVFHQF; listed as Homo sapiens) [compound 19]”, the Peptide exchange is reported as “++++ (>75% = ++++)”.
With “246 (RYLAVVHAVF; listed as Homo sapiens) [compound 246]” the Peptide exchange was “++++ (>75% = ++++)”.
In the case of “77 (RYGPVFTV; listed as Homo sapiens) [compound 77]”, the Peptide exchange is reported as “++++ (>75% = ++++)”.
For “11 (SYSDLHYGF; listed as Homo sapiens) [compound 11]”, the Peptide exchange was “++++ (>75% = ++++)”.
“17 (RFTTMLSTF; listed as Homo sapiens) [compound 17]” was tested, and the Peptide exchange was “++++ (>75% = ++++)”.
With “255 (VFVSFSSLF; listed as Homo sapiens) [compound 255]” the Peptide exchange was “+++ (>50 = +++)”.
With “79 (SYNEHWNYL; listed as Homo sapiens) [compound 79]” the Peptide exchange was “++++ (>75% = ++++)”.
For “78 (SFAPRSAVF; listed as Homo sapiens) [compound 78]”, the Peptide exchange was “++++ (>75% = ++++)”.
“16 (IYSPQFSRL; listed as Homo sapiens) [compound 16]” was tested, and the Peptide exchange was “++++ (>75% = ++++)”.
For “80 (TAYMVSVAAF; listed as Homo sapiens) [compound 80]”, the Peptide exchange was “+++ (>50 = +++)”.
With “76 (KYVAELSLL; listed as Homo sapiens) [compound 76]” the Peptide exchange was “++++ (>75% = ++++)”.
With “18 (KYPVHIYRL; listed as Homo sapiens) [compound 18]” the Peptide exchange was “++++ (>75% = ++++)”.
“10 (RYSDSVGRVSF; listed as Homo sapiens) [compound 10]” was tested, and the Peptide exchange was “++++ (>75% = ++++)”.
With “249 (VYTPTLGTL; listed as Homo sapiens) [compound 249]” the Peptide exchange was “++++ (>75% = ++++)”.
For “12 (KYEKIFEML; listed as Homo sapiens) [compound 12]”, the Peptide exchange was “++++ (>75% = ++++)”.
In the case of “13 (VYTFLSSTL; listed as Homo sapiens) [compound 13]”, the Peptide exchange is reported as “++++ (>75% = ++++)”.
For “82 (SYFRGFTLI; listed as Homo sapiens) [compound 82]”, the Peptide exchange was “++++ (>75% = ++++)”.
“15 (VYHDDKQPTF; listed as Homo sapiens) [compound 15]” was tested, and the Peptide exchange was “++++ (>75% = ++++)”.
With “81 (VYNHTTRPL; listed as Homo sapiens) [compound 81]” the Peptide exchange was “++++ (>75% = ++++)”.
With “252 (LYQPRASEM; listed as Homo sapiens) [compound 252]” the Peptide exchange was “+++ (>50 = +++)”.
For “14 (FYFPTPTVL; listed as Homo sapiens) [compound 14]”, the Peptide exchange was “++++ (>75% = ++++)”.

— US20210340217A1, “NOVEL PEPTIDES AND COMBINATION OF PEPTIDES FOR USE IN IMMUNOTHERAPY AGAINST OVARIAN CANCER AND OTHER CANCERS” (Immatics Biotechnologies GmbH, priority 2017, published 2021)
